Measured values: patent US20240269235A1 (Gilead, published 2024)

T1: trimeric murine IL-2 receptor (IL-2Rα, IL-2Rβ, and IL-2Rγ) on CTLL-2 cells (murine, UniProt P01590 22-268; P16297 27-539; P34902 23-369)
T1 sequence (looked up) 1: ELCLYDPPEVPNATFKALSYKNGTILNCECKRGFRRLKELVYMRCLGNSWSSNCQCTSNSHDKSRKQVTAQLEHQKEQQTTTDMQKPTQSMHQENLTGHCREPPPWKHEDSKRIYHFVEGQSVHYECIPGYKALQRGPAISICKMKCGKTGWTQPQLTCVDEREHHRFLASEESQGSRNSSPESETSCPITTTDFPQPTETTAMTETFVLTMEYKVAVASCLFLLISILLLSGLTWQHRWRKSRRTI
T1 sequence (looked up) 2: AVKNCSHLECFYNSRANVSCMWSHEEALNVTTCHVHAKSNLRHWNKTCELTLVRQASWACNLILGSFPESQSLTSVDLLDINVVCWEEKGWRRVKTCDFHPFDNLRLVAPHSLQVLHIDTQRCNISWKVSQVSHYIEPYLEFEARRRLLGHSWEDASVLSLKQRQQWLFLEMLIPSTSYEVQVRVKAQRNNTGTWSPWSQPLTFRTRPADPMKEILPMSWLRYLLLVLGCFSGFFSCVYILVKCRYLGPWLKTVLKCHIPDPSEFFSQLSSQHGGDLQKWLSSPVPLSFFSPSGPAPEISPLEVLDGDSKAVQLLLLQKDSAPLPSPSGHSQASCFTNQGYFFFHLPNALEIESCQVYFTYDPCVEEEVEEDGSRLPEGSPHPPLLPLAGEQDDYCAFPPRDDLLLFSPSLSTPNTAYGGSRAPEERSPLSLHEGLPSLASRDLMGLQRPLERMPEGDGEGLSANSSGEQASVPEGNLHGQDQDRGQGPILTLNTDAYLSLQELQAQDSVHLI
T1 sequence (looked up) 3: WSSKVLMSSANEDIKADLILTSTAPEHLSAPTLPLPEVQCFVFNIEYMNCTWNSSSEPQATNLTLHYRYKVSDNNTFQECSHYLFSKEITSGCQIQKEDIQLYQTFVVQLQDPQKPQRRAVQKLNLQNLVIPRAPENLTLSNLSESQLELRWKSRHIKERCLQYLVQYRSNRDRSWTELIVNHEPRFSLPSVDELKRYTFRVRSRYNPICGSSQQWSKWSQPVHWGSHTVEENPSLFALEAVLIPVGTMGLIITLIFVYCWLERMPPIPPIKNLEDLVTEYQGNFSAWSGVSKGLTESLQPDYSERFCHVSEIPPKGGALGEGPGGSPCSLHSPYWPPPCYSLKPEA

T2: IL-2Rβ and IL-2Rγ on Ba/F3 cells engineered to express murine IL-2Rβ (murine, UniProt P16297 27-539; P34902 23-369)
T2 sequence (looked up) 1: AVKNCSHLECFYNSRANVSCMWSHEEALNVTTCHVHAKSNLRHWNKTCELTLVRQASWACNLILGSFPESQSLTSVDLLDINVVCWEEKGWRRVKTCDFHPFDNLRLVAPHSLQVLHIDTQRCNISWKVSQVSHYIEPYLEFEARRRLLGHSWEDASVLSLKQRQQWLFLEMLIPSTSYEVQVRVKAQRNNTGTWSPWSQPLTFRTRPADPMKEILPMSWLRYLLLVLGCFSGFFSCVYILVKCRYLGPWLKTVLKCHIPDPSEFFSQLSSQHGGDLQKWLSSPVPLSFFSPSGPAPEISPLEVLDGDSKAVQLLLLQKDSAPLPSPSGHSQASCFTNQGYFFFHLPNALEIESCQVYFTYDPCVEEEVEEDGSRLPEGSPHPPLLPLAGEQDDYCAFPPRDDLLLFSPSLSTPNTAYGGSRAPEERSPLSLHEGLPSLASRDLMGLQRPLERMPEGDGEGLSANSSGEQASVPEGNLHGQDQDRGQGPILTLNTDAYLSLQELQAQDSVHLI
T2 sequence (looked up) 2: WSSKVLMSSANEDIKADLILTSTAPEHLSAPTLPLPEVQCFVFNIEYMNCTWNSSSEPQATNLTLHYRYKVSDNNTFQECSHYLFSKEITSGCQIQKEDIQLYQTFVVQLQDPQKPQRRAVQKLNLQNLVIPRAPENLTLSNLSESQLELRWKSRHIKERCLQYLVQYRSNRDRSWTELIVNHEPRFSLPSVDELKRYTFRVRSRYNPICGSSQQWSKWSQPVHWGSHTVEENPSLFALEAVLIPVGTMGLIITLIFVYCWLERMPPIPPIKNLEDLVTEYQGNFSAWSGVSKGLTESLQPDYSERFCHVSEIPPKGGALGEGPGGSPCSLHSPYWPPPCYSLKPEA


Experiments:
[1] = molecular target: T1, trimeric murine IL-2 receptor (IL-2Rα, …); assay: cell-based or functional assay
[2] = molecular target: T2, IL-2Rβ and IL-2Rγ on Ba/F3 cells …; assay: cell-based or functional assay

| Binder | pSTAT5 EC50, STAT5 activation of CTLL-2 cells [1] | Proliferation EC50, Ba/F3 cells [2] |
| --- | --- | --- |
| mouse surrogate Fc-IL-2 heterodimer 165.250 (IL2v_C140A), native IL-2Rα binding interface (Fc fusion) chain 1: GPTIKPCPPCKCPAPNAAGGPSVFIFPPKIKDVLMISLSPIVTCVVVDVSEDDPDVQISWFVNNVEVHTAQTQTHREDYNSTLRVVSALPIQHQDWMSGKEFKCKVNNKDLGAPIERTISKPKGSVRAPQVYVLPPPEEEMTKKQVTLWCMVTDFMPEDIYVEWTNNGKTELNYKNTEPVLDSDGSYFMYSKLRVEKKNWVERNSYSCSVVHEGLHNHHTTKSFSRTPGGGGGSGGGGSGGGGSGGGGSQQQHLEQLLMDLQELLSRMENYRNLKLPRMLTFKFYLPKQATELKDLQCLEDELGPLRHVLDLTQSKSFQLEDAENFISNIRVTVVKLKGSDNTFECQFDDESATVVDFLRRWIAFAQSIISTSPQ chain 2: GPTIKPCPPCKCPAPNAAGGPSVFIFPPKIKDVLMISLSPIVTCVVVDVSEDDPDVQISWFVNNVEVHTAQTQTHREDYNSTLRVVSALPIQHQDWMSGKEFKCKVNNKDLGAPIERTISKPKGSVRAPQVYVLPPPEEEMTKKQVTLSCAVTDFMPEDIYVEWTNNGKTELNYKNTEPVLDSDGSYFMVSKLRVEKKNWVERNSYSCSVVHEGLHNHHTTKSFSRTPGK | 0.002 nM | 4.1 nM |
| mouse surrogate Fc-IL-2v heterodimer 166.250 (IL2v_F56A_Y59A_L86G_C140A) (Fc fusion) chain 1: GPTIKPCPPCKCPAPNAAGGPSVFIFPPKIKDVLMISLSPIVTCVVVDVSEDDPDVQISWFVNNVEVHTAQTQTHREDYNSTLRVVSALPIQHQDWMSGKEFKCKVNNKDLGAPIERTISKPKGSVRAPQVYVLPPPEEEMTKKQVTLWCMVTDFMPEDIYVEWTNNGKTELNYKNTEPVLDSDGSYFMYSKLRVEKKNWVERNSYSCSVVHEGLHNHHTTKSFSRTPGGGGGSGGGGSGGGGSGGGGSQQQHLEQLLMDLQELLSRMENYRNLKLPRMLTAKFALPKQATELKDLQCLEDELGPLRHVLDGTQSKSFQLEDAENFISNIRVTVVKLKGSDNTFECQFDDESATVVDFLRRWIAFAQSIISTSPQ chain 2: GPTIKPCPPCKCPAPNAAGGPSVFIFPPKIKDVLMISLSPIVTCVVVDVSEDDPDVQISWFVNNVEVHTAQTQTHREDYNSTLRVVSALPIQHQDWMSGKEFKCKVNNKDLGAPIERTISKPKGSVRAPQVYVLPPPEEEMTKKQVTLSCAVTDFMPEDIYVEWTNNGKTELNYKNTEPVLDSDGSYFMVSKLRVEKKNWVERNSYSCSVVHEGLHNHHTTKSFSRTPGK | 5.4 nM | 9.5 nM |
| mouse surrogate Fc-IL-2v heterodimer 168.250 (IL2v_F56A_E76A_C140A) (Fc fusion) chain 1: GPTIKPCPPCKCPAPNAAGGPSVFIFPPKIKDVLMISLSPIVTCVVVDVSEDDPDVQISWFVNNVEVHTAQTQTHREDYNSTLRVVSALPIQHQDWMSGKEFKCKVNNKDLGAPIERTISKPKGSVRAPQVYVLPPPEEEMTKKQVTLWCMVTDFMPEDIYVEWTNNGKTELNYKNTEPVLDSDGSYFMYSKLRVEKKNWVERNSYSCSVVHEGLHNHHTTKSFSRTPGGGGGSGGGGSGGGGSGGGGSQQQHLEQLLMDLQELLSRMENYRNLKLPRMLTAKFYLPKQATELKDLQCLEDALGPLRHVLDLTQSKSFQLEDAENFISNIRVTVVKLKGSDNTFECQFDDESATVVDFLRRWIAFAQSIISTSPQ chain 2: GPTIKPCPPCKCPAPNAAGGPSVFIFPPKIKDVLMISLSPIVTCVVVDVSEDDPDVQISWFVNNVEVHTAQTQTHREDYNSTLRVVSALPIQHQDWMSGKEFKCKVNNKDLGAPIERTISKPKGSVRAPQVYVLPPPEEEMTKKQVTLSCAVTDFMPEDIYVEWTNNGKTELNYKNTEPVLDSDGSYFMVSKLRVEKKNWVERNSYSCSVVHEGLHNHHTTKSFSRTPGK | 63.1 nM | 20.6 nM |
| mouse surrogate Fc-IL-2v heterodimer 171.250 (IL2v_R52G_F56A_E76A_C140A) (Fc fusion) chain 1: GPTIKPCPPCKCPAPNAAGGPSVFIFPPKIKDVLMISLSPIVTCVVVDVSEDDPDVQISWFVNNVEVHTAQTQTHREDYNSTLRVVSALPIQHQDWMSGKEFKCKVNNKDLGAPIERTISKPKGSVRAPQVYVLPPPEEEMTKKQVTLWCMVTDFMPEDIYVEWTNNGKTELNYKNTEPVLDSDGSYFMYSKLRVEKKNWVERNSYSCSVVHEGLHNHHTTKSFSRTPGGGGGSGGGGSGGGGSGGGGSQQQHLEQLLMDLQELLSRMENYRNLKLPGMLTAKFYLPKQATELKDLQCLEDALGPLRHVLDLTQSKSFQLEDAENFISNIRVTVVKLKGSDNTFECQFDDESATVVDFLRRWIAFAQSIISTSPQ chain 2: GPTIKPCPPCKCPAPNAAGGPSVFIFPPKIKDVLMISLSPIVTCVVVDVSEDDPDVQISWFVNNVEVHTAQTQTHREDYNSTLRVVSALPIQHQDWMSGKEFKCKVNNKDLGAPIERTISKPKGSVRAPQVYVLPPPEEEMTKKQVTLSCAVTDFMPEDIYVEWTNNGKTELNYKNTEPVLDSDGSYFMVSKLRVEKKNWVERNSYSCSVVHEGLHNHHTTKSFSRTPGK | 88.7 nM | 13 nM |
| mouse surrogate Fc-IL-2v heterodimer 167.250 (IL2v_F56A_C140A) (Fc fusion) chain 1: GPTIKPCPPCKCPAPNAAGGPSVFIFPPKIKDVLMISLSPIVTCVVVDVSEDDPDVQISWFVNNVEVHTAQTQTHREDYNSTLRVVSALPIQHQDWMSGKEFKCKVNNKDLGAPIERTISKPKGSVRAPQVYVLPPPEEEMTKKQVTLWCMVTDFMPEDIYVEWTNNGKTELNYKNTEPVLDSDGSYFMYSKLRVEKKNWVERNSYSCSVVHEGLHNHHTTKSFSRTPGGGGGSGGGGSGGGGSGGGGSQQQHLEQLLMDLQELLSRMENYRNLKLPRMLTAKFYLPKQATELKDLQCLEDELGPLRHVLDLTQSKSFQLEDAENFISNIRVTVVKLKGSDNTFECQFDDESATVVDFLRRWIAFAQSIISTSPQ chain 2: GPTIKPCPPCKCPAPNAAGGPSVFIFPPKIKDVLMISLSPIVTCVVVDVSEDDPDVQISWFVNNVEVHTAQTQTHREDYNSTLRVVSALPIQHQDWMSGKEFKCKVNNKDLGAPIERTISKPKGSVRAPQVYVLPPPEEEMTKKQVTLSCAVTDFMPEDIYVEWTNNGKTELNYKNTEPVLDSDGSYFMVSKLRVEKKNWVERNSYSCSVVHEGLHNHHTTKSFSRTPGK | 0.12 nM | 5.2 nM |
